# Data taken from patent publication US20210009975A1 (UNIVERSITY OF GEORGIA RESEARCH FOUNDATION, published 2021).
# Substitutions are numbered along the chain they refer to. Names may count otherwise.
# T1: asialofetuin (UniProt P12763 19-359, de-sialylated glycans)
# T1 construct: also called de-sialylated fetuin
# T1 sequence: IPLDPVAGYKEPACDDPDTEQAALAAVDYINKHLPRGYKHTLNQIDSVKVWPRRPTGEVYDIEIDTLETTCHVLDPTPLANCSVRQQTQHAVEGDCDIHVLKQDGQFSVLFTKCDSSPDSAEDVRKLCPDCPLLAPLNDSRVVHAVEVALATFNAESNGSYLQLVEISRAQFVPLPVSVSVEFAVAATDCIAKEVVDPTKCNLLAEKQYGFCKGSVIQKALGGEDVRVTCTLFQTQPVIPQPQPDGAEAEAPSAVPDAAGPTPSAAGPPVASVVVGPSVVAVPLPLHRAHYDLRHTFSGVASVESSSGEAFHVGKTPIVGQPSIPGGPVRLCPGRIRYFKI
# T2: horseradish peroxidase (horseradish, UniProt P00433 31-338)
# T2 construct: also called HRP
# T2 sequence: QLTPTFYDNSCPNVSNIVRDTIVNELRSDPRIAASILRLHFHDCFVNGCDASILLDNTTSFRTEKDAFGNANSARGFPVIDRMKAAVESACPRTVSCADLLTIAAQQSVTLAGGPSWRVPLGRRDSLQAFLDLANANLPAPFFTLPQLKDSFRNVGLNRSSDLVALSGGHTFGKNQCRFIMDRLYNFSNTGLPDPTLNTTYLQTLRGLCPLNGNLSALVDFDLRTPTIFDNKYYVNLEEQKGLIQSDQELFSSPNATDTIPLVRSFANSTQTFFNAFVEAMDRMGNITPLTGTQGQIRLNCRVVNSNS
# B1: Sia-3S1 Lectenz (NanB residues 30-697 with R193A, D270Q, A538V, E541D) (designed binder)
# chain: NELNYGQLSISPIFQGGSYQLNNKSIDISSLLLDKLSGESQTVVMKFKADKPNSLQALFGLSNSKAGFKNNYFSIFMRDSGEIGVEIRDAQKGINYLFSRPASLWGKHKGQAVENTLVFVSDSKDKTYTMYVNGIEVFSETVDTFLPISNINGIDKATLGAVNAEGKEHYLAKGSIDEISLFNKAISDQEVSTIPLSNPFQLIFQSGDSTQANYFRIPTLYTLSSGRVLSSIDARYGGTHQSKSKINIATSYSDDNGKTWSEPIFAMKFNDYEEQLVYWPRDNKLKNSQISGSASFIDSSIVEDKKSGKTILLADVMPAGIGNNNANKADSGFKEINGHYYLKLKKNGDNDFRYTVRENGVVYNETTNKPTNYTINDKYEVLEGGKSLTVEQYSVDFDSGSLRERHNGKQVPMNVFYKDSLFKVTPTNYIAMTTSQNRGESWEQFKLLPPFLGEKHNGTYLCPGQGLALKSSNRLIFATYTSGELTYLISDDSGQTWKKSSASIPFKNVTADAQMVELRDGVIRTFFRTTTGKIAYMTSRDSGETWSKVSYIDGIQQTSYGTQVSAIKYSQLIDGKEAVILSTPNSRSGRKGGQLVVGLVNKEDDSIDWKYHYDIDLPSYGYAYSAITELPNHHIGVLFEKYDSWSRNELHLSNVVQYIDLEINDLTK
# notes: also called Sia-31 [sic]; not shown: N-terminal hexa-histidine tag
# B2: Sia-PS1 Lectenz (NanB residues 30-697 with Y653F) (designed binder)
# chain: B1 chain with A164R, Q241D, V509A, D512E, Y624F
# Experiments:
# [1] = target: proteins of MCF7 cell-free extract; experiment: LAC, Sia-PS1 column, about 1.5 mg MCF7 proteins circulated at 4 °C overnight
# [2] = target: proteins of MCF7 cell-free extract; experiment: LAC, Sia-PS1 column, approximately 500 µg CFE loaded
# [3] = target: proteins of MCF7 cell-free extract; experiment: LAC, Sia-PS1 column, elution with 3′SL and 6′SL
# [4] = target: 3'-sialyllactose-BSA (bovine); experiment: LAC, Sia-3S1 column, 100 µg loaded
# 3'-sialyllactose-BSA (bovine), sequence (P02769 25-607 limits assumed): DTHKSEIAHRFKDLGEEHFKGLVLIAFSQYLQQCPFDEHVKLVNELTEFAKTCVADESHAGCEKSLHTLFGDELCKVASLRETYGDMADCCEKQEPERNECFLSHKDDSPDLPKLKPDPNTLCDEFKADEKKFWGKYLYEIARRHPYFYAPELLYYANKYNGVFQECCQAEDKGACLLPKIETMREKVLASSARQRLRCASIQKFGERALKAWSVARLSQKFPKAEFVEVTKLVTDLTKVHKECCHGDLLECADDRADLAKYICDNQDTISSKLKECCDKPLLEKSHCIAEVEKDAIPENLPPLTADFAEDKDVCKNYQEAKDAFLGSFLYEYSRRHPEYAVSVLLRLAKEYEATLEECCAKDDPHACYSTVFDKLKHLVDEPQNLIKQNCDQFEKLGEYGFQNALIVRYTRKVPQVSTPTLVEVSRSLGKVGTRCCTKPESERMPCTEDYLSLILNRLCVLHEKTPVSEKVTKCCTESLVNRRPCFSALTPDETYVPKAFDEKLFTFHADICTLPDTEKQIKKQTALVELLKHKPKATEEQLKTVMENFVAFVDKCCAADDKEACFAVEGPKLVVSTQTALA
# fetuin [5] = target: fetuin (UniProt P12763)
# [6] = target: 3'-sialyllactose-BSA (bovine); experiment: LAC, Sia-3S1 column, 50 µg loaded, 10 mM EPPS pH 7.5 with 110 mM NaCl
# fetuin [7] = target: fetuin (UniProt P12763); experiment: LAC, Sia-3S1 coupled to Sepharose column, 100 µg fetuin loaded
# [8] = target: 3'-sialyllactose-BSA (bovine)
# asialofetuin = target: T1, asialofetuin; experiment: Western blot, Sia-3S1 as probe, anti-poly-His-HRP detection
# horseradish peroxidase = target: T2, horseradish peroxidase; experiment: Lectenz affinity chromatography (LAC), Sia-PS1 coupled to Sepharose column
molecule,measurement,setting,value
Sia-PS1 Lectenz (NanB residues 30-697 with Y653F) (designed binder),amount of protein in eluted peak,[1],207 µg
same,percent of loaded proteins in eluted peak,[1],13.8%
same,amount of bound proteins (elution peak),[2],30 µg
same,amount of unbound proteins (flow-through peak),[2],319 µg
same,percent of total proteins bound to the column,[3],10%
"Sia-3S1 Lectenz (NanB residues 30-697 with R193A, D270Q, A538V, E541D) (designed binder)",amount in flow through,[4],5 µg
same,percent of bound fetuin competitively eluted by 3′SL,fetuin [5],100%
same,percent of bound fetuin competitively eluted by 6′SL,fetuin [5],50%
same,amount that did not bind to the column,[6],5 µg
same,amount bound to the column,fetuin [7],85 µg
same,3'SL-BSA Elution (amount of bound 3'SL-BSA eluted from the column),[8],45 µg
B1,binding result,asialofetuin,no binding (tested: 1 µM)
B2,binding result,horseradish peroxidase,no binding
